Positions count from the first letter of the chain named.
How the values were obtained:
[1] = target: T1, chymase (recombinant, SIGMA) (UniProt P23946); experiment: inhibition; settings: 2'-F pyrimidines (U, C); negative control pool, no inhibition
T1 sequence: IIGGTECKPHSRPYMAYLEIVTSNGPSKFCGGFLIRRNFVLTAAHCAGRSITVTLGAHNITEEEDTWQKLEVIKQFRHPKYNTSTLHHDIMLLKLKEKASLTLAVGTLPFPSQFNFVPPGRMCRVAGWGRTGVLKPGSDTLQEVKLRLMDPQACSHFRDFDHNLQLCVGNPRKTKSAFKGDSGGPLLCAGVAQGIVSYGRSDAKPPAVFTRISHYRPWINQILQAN

[2] = target: T2, chymase (recombinant, SIGMA) (UniProt P23946 P23946:22-247); experiment: inhibition; Suc-AAPF-MCA substrate, 37 C, 1.8 mM Ca, 0.8 mM Mg, pH 7.6; settings: tags: SIGMA recombinant
T2 sequence: T1 sequence
Protocol: By detecting the fluorescence of this AMC, the enzyme activity of chymase can be determined. The assay was performed using a 96-well plate (F16 Black Maxisorp Fluoronunc, manufactured by Nunc), with a reaction mixture volume of 100 μL, in solution C as a buffer solution. Here, the solution C is a mixed solution of 145 mM sodium chloride, 5.4 mM potassium chloride, 1.8 mM calcium chloride, 0.8 mM magnesium chloride, 20 mM Tris (pH 7.6), and 0.05% Tween20. First, nucleic acid was serially diluted in solution C to obtain 50 μL solutions. After 10 μL of the 1 mM substrate prepared in solution C was added thereto, the plate was set to the microplate reader SpectraMax190 (manufactured by Molecular Devices Corporation), and incubated at 37° C. for 5 minutes. […] The plate containing the reaction mixture was set to the microplate reader SpectraMax190 (manufactured by Molecular Devices Corporation), and examined for time-dependent changes in the fluorescence intensity at 37° C. for 5 minutes (or 30 minutes) (excitation wavelength 380 nm, detection wavelength 460 nm). A linear approximation of the increase in the fluorescence of the AMC released from the substrate by chymase activity was generated, and its slope was taken as the initial velocity […]. […]

[3] = target: T2, chymase (recombinant, SIGMA); experiment: inhibition; Suc-AAPF-MCA substrate, 37 C; settings: tags: SIGMA recombinant
Protocol: (§1) By detecting the fluorescence of this AMC, the enzyme activity of chymase can be determined. The assay was performed using a 96-well plate (F16 Black Maxisorp Fluoronunc, manufactured by Nunc), with a reaction mixture volume of 100 μL, in solution C as a buffer solution. Here, the solution C is a mixed solution of 145 mM sodium chloride, 5.4 mM potassium chloride, 1.8 mM calcium chloride, 0.8 mM magnesium chloride, 20 mM Tris (pH 7.6), and 0.05% Tween20. First, nucleic acid was serially diluted in solution C to obtain 50 μL solutions. After 10 μL of the 1 mM substrate prepared in solution C was added thereto, the plate was set to the microplate reader SpectraMax190 (manufactured by Molecular Devices Corporation), and incubated at 37° C. for 5 minutes. Separately, 0.05 μg of chymase (recombinant, manufactured by SIGMA) was diluted in solution C to obtain a 40 μL chymase solution, and incubated at 37° C. for 5 minutes. The chymase solution was added to the mixture of the nucleic acid and substrate to initiate an enzyme reaction. The final chymase concentration in the reaction mixture was 16.7 nM, the final substrate concentration being 100 μM. The plate containing the reaction mixture was set to the microplate reader SpectraMax190 (manufactured by Molecular Devices Corporation), and examined for time-dependent changes in the fluorescence intensity at 37° C. for 5 minutes (or 30 minutes) (excitation wavelength 380 nm, detection wavelength 460 nm). A linear approximation of the increase in the fluorescence of the AMC released from the substrate by chymase activity was generated, and its slope was taken as the initial velocity […]. For control, samples were treated and analyzed in the same manner in two cases: use of a 30N (a nucleotide of 30 consecutive bases represented by N; N is A, G, C or T) nucleic acid pool (negative control), and use of chymostatin, a known chymotrypsin-like serine protease inhibitor (positive control). Taking the initial reaction velocity without the nucleic acid and inhibitor (V₀) as a 100% enzyme activity, the inhibitory rate of each test substance was calculated using the following equation: […]

[4] = target: T3, chymase (native, human skin mast cell) (Homo sapiens, UniProt P23946 P23946:22-247); experiment: inhibition; angiotensin I substrate, 37 C; settings: tags: Calbiochem Human Skin
T3 sequence: T1 sequence
Protocol: (§2) The total volume of solution for an enzyme reaction in the assay was set to 50 μL, and the reaction was performed in solution C buffer. At first, native (manufactured by Calbiochem) was diluted with solution C to give 5 μL thereof. Here, the native is chymase purified from human skin mast cell. The nucleic acid was serially diluted with solution C at a concentration of 0.0027-2 μM to give 25 μL thereof. The chymase solution (5 μL) and the nucleic acid solution (25 μL) were mixed, and the mixture was incubated at 37° C. for 5 min. On the other hand, […] angiotensin I (manufactured by PEPTIDE […], INC.) was prepared in solution C to give 20 μL thereof, which was incubated at 37° C. for 5 min. […] The whole mixture was centrifuged at 4° C., 14000 rpm for 10 min, and the supernatant (30 μL) was used for the next fluorescence induction reaction.
(§3) The above-mentioned supernatant (30 μL) was added to a 96 well plate (black, manufactured by Costar), a solution (15 μL) of 2% o-phthalaldehyde (manufactured by SIGMA) in methanol and 0.3M NaOH solution (170 μL) were added to each well, and the mixture was incubated at room temperature for 10 min. […] The plate was set on a microplate reader SpectraMax190 (manufactured by Molecular device) and the fluorescence intensity was measured at an excitation wavelength of 355 nm and a fluorescence wavelength of 460 nm. […]

[5] = target: T3, chymase (native, human skin mast cell); experiment: inhibition; angiotensin I substrate, 37 C; settings: tags: Calbiochem Human Skin; remark: listed apart in the source
Protocol: Whether the nucleic acids shown by SEQ ID NO: 9 and 10 inhibit the enzyme activity of chymase was determined by the following method. Angiotensin I is converted by chymase to angiotensin II, during which a peptide fragment His-Leu is released. Since the peptide His-Leu is fluorescently derivatized by o-phthalaldehyde, its fluorescence intensity can be quantitatively measured.
The total volume of solution for an enzyme reaction in the assay was set to 50 μL, and the reaction was performed in solution C buffer. At first, native (manufactured by Calbiochem) was diluted with solution C to give 5 μL thereof. Here, the native is chymase purified from human skin mast cell. […] The whole mixture was centrifuged at 4° C., 14000 rpm for 10 min, and the supernatant (30 μL) was used for the next fluorescence induction reaction.
The above-mentioned supernatant (30 μL) was added to a 96 well plate (black, manufactured by Costar), a solution (15 μL) of 2% o-phthalaldehyde (manufactured by SIGMA) in methanol and 0.3M NaOH solution (170 μL) were added to each well, and the mixture was incubated at room temperature for 10 min. […] The plate was set on a microplate reader SpectraMax190 (manufactured by Molecular device) and the fluorescence intensity was measured at an excitation wavelength of 355 nm and a fluorescence wavelength of 460 nm.

[6] = target: T3, chymase (native, human skin mast cell); experiment: inhibition; angiotensin I substrate; second G of GGGG 2'-OMe; settings: tags: Calbiochem Human Skin
Protocol: as §2, §3

[7] = target: T2, chymase (recombinant, SIGMA); experiment: inhibition; Suc-AAPF-MCA substrate, 0.005 ug chymase, single measurement; settings: tags: SIGMA recombinant
Protocol: as §1, with “The” for “By detecting the fluorescence of this AMC, the enzyme activity of chymase can be determined. The”
In the evaluation of SEQ ID NO: 21-25, a method similar to the evaluation method of inhibitory activity against chymase shown in Example 1 by using MCA as a substrate except that the amount chymase was changed from 0.05 μg to 0.005 μg was used for measurement.

[8] = target: T3, chymase (native, human skin mast cell); experiment: inhibition; angiotensin I substrate; table prints length 32 though SEQ 33 is 31 nt; settings: tags: Calbiochem Human Skin
Protocol: The total volume of solution for an enzyme reaction in the assay was set to 50 μL, and the reaction was performed in solution C buffer. At first, native (manufactured by Calbiochem) was diluted with solution C to give 5 μL thereof. Here, the native is chymase purified from human skin mast cell. The nucleic acid was serially diluted with solution C at a concentration of 0.0027-2 μM to give 25 μL thereof. The chymase solution (5 μL) and the nucleic acid solution (25 μL) were mixed, and the mixture was incubated at 37° C. for 5 min. On the other hand, […] angiotensin I (manufactured by PEPTIDE […], INC.) was prepared in solution C to give 20 μL thereof, which was incubated at 37° C. for 5 min. The angiotensin I solution was added to a mixture of chymase and nucleic acid to start an enzyme reaction. The final chymase concentration of the reaction solution was 0.5 nM, and the final substrate concentration was 50 μM. After reaction at 37° C. for 90 min, ice-cooled 30% trichloroacetic acid solution (25 μL) was added to quench the reaction. The whole mixture was centrifuged at 4° C., 14000 rpm for 10 min, and the supernatant (30 μL) was used for the next fluorescence induction reaction.

[9] = target: T3, chymase (native, human skin mast cell); experiment: inhibition; angiotensin I substrate; second G of GGGG 2'-OMe; settings: tags: Calbiochem Human Skin; remark: listed apart in the source
Protocol: as §2, §3

## UCACACUAGCACGCAUAGGNNNNNNNNNNNNNNNNNNNNNNNNNNNNNNCAUCUGACCUCUCUCCUGCUCCC [30N nucleic acid pool]
[1]
  IC50: > 500 nM

B1: SEQ ID NO: 1 (ssRNA)
RNA: GGGAGCAGGAGAGAGGUCAGAUGAGCAUGCUUUUUGGUAACCGAUAAUGGGGGCCUAUGCGUGCUAGUGUGA
modifications: 2'-F pyrimidines (U, C); purines 2'-OH
[2]
  IC50: 41 nM

B2: SEQ ID NO: 2 (ssRNA)
RNA: GGGAGCAGGAGAGAGGUCAGAUGAUCGGACAUAACAUUGUUGGGGUGUCAAGGCCUAUGCGUGCUAGUGUGA
modifications: 2'-F pyrimidines (U, C); purines 2'-OH
[3]
  IC50: 31 nM
[4]
  IC50: 10 nM

B3: SEQ ID NO: 10 (ssRNA)
RNA: GGGAACGAAGCGACAGACCGAAUCAGAAGUUCAACAUGGACAUAACAUCGAUGGGGUGUCAAGUACUGACGACAGA
modifications: 2'-F pyrimidines (U, C); purines 2'-OH
[5]
  IC50: 0.43 nM

B4: SEQ ID NO: 3 (ssRNA)
RNA: GGGAGCAGGAGAGAGGUCAGAUGAUAACCAGUUGGGGGGUCAAUUACAUGGGACCUAUGCGUGCUAGUGUGA
modifications: 2'-F pyrimidines (U, C); purines 2'-OH
[3]
  IC50: 26 nM

B5: SEQ ID NO: 17(1) (ssRNA)
RNA: GAUGAUCGGACAUAACAUUGUUGGGGUGUCAA
modifications: GAU(F)GAU(F)C(F)GGAC(F)AU(F)AAC(F)AU(F)U(F)GU(F)U(F)G(M)G(M)GGU(F)GU(F)C(F)AA (F=2'-F, M=2'-OMe)
[6]
  IC50: 44.4 nM

B6: SEQ ID NO: 17(3) (ssRNA)
RNA: B5 RNA
modifications: idT-G(M)A(M)U(F)G(M)A(M)U(F)C(F)G(M)G(M)A(M)C(F)A(M)U(F)AAC(F)AU(F)U(F)G(M)U(F)U(F)GG(M)G(M)G(M)U(F)G(M)U(F)C(F)A(M)A(M)-idT (F=2'-F, M=2'-OMe)
[6]
  IC50: 5.66 nM

B7: SEQ ID NO: 4 (ssRNA)
RNA: GGGAGCAGGAGAGAGGUCAGAUGUAACUCUAUUGAGGGGCAUCAGCACAGUAGCCUAUGCGUGCUAGUGUGA
modifications: 2'-F pyrimidines (U, C); purines 2'-OH
[3]
  IC50: 10.8 nM

B8: SEQ ID NO: 5 (ssRNA)
RNA: GGGAGCAGGAGAGAGGUCAGAUGAUGACCGAUUAUAGGUAACCACUUAGGGGGCCUAUGCGUGCUAGUGUGA
modifications: 2'-F pyrimidines (U, C); purines 2'-OH
[3]
  IC50: 7 nM

B9: SEQ ID NO: 21 (ssRNA)
RNA: GGCAGAUGAUCGGACAUAACAGGUUAGAUAGAGUUAAAAACCUGGGGUGUCAA
modifications: 2'-F pyrimidines (inferred)
[7]
  IC50: 5.7 nM

B10: SEQ ID NO: 22 (ssRNA)
RNA: GGCAGAUGAUCGGACAUAACAGUUAGAUAGAGUUAAAAACUGGGGUGUCAA
modifications: 2'-F pyrimidines (inferred)
[7]
  IC50: 5 nM

## GGCAGAUGAUCGGACAUAACAGUAGAUAGAGUUAAAACUGGGGUGUCAA (ssRNA, 2'-F pyrimidines (inferred)) [SEQ ID NO: 23]
[7]
  IC50: 7.8 nM

B11: SEQ ID NO: 6 (ssRNA)
RNA: B1 RNA with A24U, G25C, C26A, A27U, U28G, G29A, U33A, U35A
modifications: 2'-F pyrimidines (U, C); purines 2'-OH
[3]
  IC50: 5.5 nM

## GGCAGAUGAUCGGACAUAACAUAGAUAGAGUUAAAAUGGGGUGUCAA (ssRNA, 2'-F pyrimidines (inferred)) [SEQ ID NO: 24]
[7]
  IC50: 3.7 nM

## GGCAGAUGAUCGGACAUAACAAGAUAGAGUUAAAUGGGGUGUCAA (ssRNA, 2'-F pyrimidines (inferred)) [SEQ ID NO: 25]
[7]
  IC50: 5.8 nM

## AUGAUCGGACAUAACUAAUUAGGGGUGUCAA (ssRNA, 2'-F pyrimidines (U, C); purines 2'-OH) [SEQ ID NO: 33]
[8]
  IC50: 0.21 nM

B12: SEQ ID NO: 7 (ssRNA)
RNA: GGGAGCAGGAGAGAGGUCAGAUGUUUGGUAGUAACUGGAAUAGGGGCUACAGGCCUAUGCGUGCUAGUGUGA
modifications: 2'-F pyrimidines (U, C); purines 2'-OH
[3]
  IC50: 52 nM

B13: SEQ ID NO: 33(9) (mixed)
RNA: AUGAUCGGACAUAACUAAUUAGGGGUGUCAA
modifications: idT-A(M)U(M)G(M)A(M)U(F)C(F)G(M)G(M)A(M)C(M)A(M)U(M)AAC(M)U(F)A(M)A(M)U(M)U(M)A(M)G(M)G(M)G(M)G(M)tG(M)U(M)C(M)A(M)A(M)-idT (F=2'-F, M=2'-OMe)
[9]
  IC50: 1.35 nM

B14: SEQ ID NO: 8 (ssRNA)
RNA: B8 RNA with G26U, A27G, C28A, U32C, A44U, C45U, U47A, A48C
modifications: 2'-F pyrimidines (U, C); purines 2'-OH
[3]
  IC50: 35 nM
